For two substances, stoichiometry N results are on record in article PMC8395497.

The target of experiment [1] is Halisarca dujardini ferritin HdF1a/b (Halisarca dujardini (endogenous in sponge body tissue)). The experiment can be described thus: native gel or EMSA; sponge body tissue homogenates (20 mM EDTA, 50 mM Hepes-Na pH 7.2, 200 mM NaCl, 4 °C) on a native 3.5-10% polyacrylamide gradient gel in 50 mM Bis-Tris-glycine pH 8.0; Prussian blue staining and UV 360 nm absorbance; markers horse ferritin (440 kDa) and thyroglobulin (670 kDa); high molecular mass bands cut out and identified by MALDI/TOF mass spectrometry.

In experiment [2] the target is Halichondria panicea ferritin HpF1 (Halichondria panicea (endogenous in sponge body tissue)). The experiment is described as above.

Usually stoichiometry N stands for a count of units in the complex or per binding partner. Turning to “Halisarca dujardini ferritin HdF1a/b (natural protein)”, the stoichiometry N in experiment [1] is 24 subunits.

Consider “Halichondria panicea ferritin HpF1 (natural protein)”, for which the stoichiometry N in experiment [2] was determined as 24 subunits.
